In article PMC4598299 one finds Kd data, which are given here for one molecule.

For this data set, the target named is hThumb WT (hTERT thumb/CTE domain) (human, UniProt O14746 943-1132). Put plainly: fluorescence polarization.
Sequence of hThumb WT (hTERT thumb/CTE domain) (O14746 943-1132): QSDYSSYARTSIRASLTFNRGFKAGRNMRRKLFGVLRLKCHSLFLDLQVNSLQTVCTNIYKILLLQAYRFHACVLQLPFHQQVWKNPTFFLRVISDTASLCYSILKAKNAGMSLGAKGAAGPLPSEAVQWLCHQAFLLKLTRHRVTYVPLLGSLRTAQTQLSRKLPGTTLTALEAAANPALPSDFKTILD

B1: hTER CR4/5 (structured_RNA)
RNA: CCCGCCUGGAGGCCGCGGUCCGCCGCGAAGAGUUGGGCUCUGUCAGCCGCGGG
On to B1, for which the Kd is around 400 nM.
